From article doi:10.1101/2020.03.19.999276 (bioRxiv, 2020)

B1: purified human TRPA1 (hTRPA1) (natural protein, UniProt O75762 1-1119, looked up)
chain: MKRSLRKMWRPGEKKEPQGVVYEDVPDDTEDFKESLKVVFEGSAYGLQNFNKQKKLKRCDDMDTFFLHYAAAEGQIELMEKITRDSSLEVLHEMDDYGNTPLHCAVEKNQIESVKFLLSRGANPNLRNFNMMAPLHIAVQGMNNEVMKVLLEHRTIDVNLEGENGNTAVIIACTTNNSEALQILLKKGAKPCKSNKWGCFPIHQAAFSGSKECMEIILRFGEEHGYSRQLHINFMNNGKATPLHLAVQNGDLEMIKMCLDNGAQIDPVEKGRCTAIHFAATQGATEIVKLMISSYSGSVDIVNTTDGCHETMLHRASLFDHHELADYLISVGADINKIDSEGRSPLILATASASWNIVNLLLSKGAQVDIKDNFGRNFLHLTVQQPYGLKNLRPEFMQMQQIKELVMDEDNDGCTPLHYACRQGGPGSVNNLLGFNVSIHSKSKDKKSPLHFAASYGRINTCQRLLQDISDTRLLNEGDLHGMTPLHLAAKNGHDKVVQLLLKKGALFLSDHNGWTALHHASMGGYTQTMKVILDTNLKCTDRLDEDGNTALHFAAREGHAKAVALLLSHNADIVLNKQQASFLHLALHNKRKEVVLTIIRSKRWDECLKIFSHNSPGNKCPITEMIEYLPECMKVLLDFCMLHSTEDKSCRDYYIEYNFKYLQCPLEFTKKTPTQDVIYEPLTALNAMVQNNRIELLNHPVCKEYLLMKWLAYGFRAHMMNLGSYCLGLIPMTILVVNIKPGMAFNSTGIINETSDHSEILDTTNSYLIKTCMILVFLSSIFGYCKEAGQIFQQKRNYFMDISNVLEWIIYTTGIIFVLPLFVEIPAHLQWQCGAIAVYFYWMNFLLYLQRFENCGIFIVMLEVILKTLLRSTVVFIFLLLAFGLSFYILLNLQDPFSSPLLSIIQTFSMMLGDINYRESFLEPYLRNELAHPVLSFAQLVSFTIFVPIVLMNLLIGLAVGDIAEVQKHASLKRIAMQVELHTSLEKKLPLWFLRKVDQKSTIVYPNKPRSGGMLFHIFCFLFCTGEIRQEIPNADKSLEMEILKQKYRLKDLTFLLEKQHELIKLIIQKMEIISETEDDDSHCSFQDRFKKEQMEQRNSRWNTVLRAVKAKTHHLEP
modifications: Ni-NTA Atto647N on the N-terminal His-tag (labeled copies in FCS)
B2: Δ1-688 hTRPA1 (hTRPA1 without its N-terminal ankyrin repeat domain) (domain or fragment, human, UniProt O75762 689-1119, looked up)
chain: MVQNNRIELLNHPVCKEYLLMKWLAYGFRAHMMNLGSYCLGLIPMTILVVNIKPGMAFNSTGIINETSDHSEILDTTNSYLIKTCMILVFLSSIFGYCKEAGQIFQQKRNYFMDISNVLEWIIYTTGIIFVLPLFVEIPAHLQWQCGAIAVYFYWMNFLLYLQRFENCGIFIVMLEVILKTLLRSTVVFIFLLLAFGLSFYILLNLQDPFSSPLLSIIQTFSMMLGDINYRESFLEPYLRNELAHPVLSFAQLVSFTIFVPIVLMNLLIGLAVGDIAEVQKHASLKRIAMQVELHTSLEKKLPLWFLRKVDQKSTIVYPNKPRSGGMLFHIFCFLFCTGEIRQEIPNADKSLEMEILKQKYRLKDLTFLLEKQHELIKLIIQKMEIISETEDDDSHCSFQDRFKKEQMEQRNSRWNTVLRAVKAKTHHLEP
modifications: Ni-NTA Atto647N on the N-terminal His-tag (labeled copies in FCS)

Target: the molecule itself
Assay: fluorescence correlation spectroscopy

| Protein | stoichiometry N |
| --- | --- |
| B1 | 4 |
| B2 | 4 |
